Results reported in PMC4525287, “Auxiliary KCNE subunits modulate both homotetrameric Kv2.1 and heterotetrameric Kv2.1/Kv6.4 channels” (Scientific Reports, 2015).

Molecular target: T1, unlabeled Kv2.1 (human, UniProt Q14721 1-858)
T1 sequence (looked up): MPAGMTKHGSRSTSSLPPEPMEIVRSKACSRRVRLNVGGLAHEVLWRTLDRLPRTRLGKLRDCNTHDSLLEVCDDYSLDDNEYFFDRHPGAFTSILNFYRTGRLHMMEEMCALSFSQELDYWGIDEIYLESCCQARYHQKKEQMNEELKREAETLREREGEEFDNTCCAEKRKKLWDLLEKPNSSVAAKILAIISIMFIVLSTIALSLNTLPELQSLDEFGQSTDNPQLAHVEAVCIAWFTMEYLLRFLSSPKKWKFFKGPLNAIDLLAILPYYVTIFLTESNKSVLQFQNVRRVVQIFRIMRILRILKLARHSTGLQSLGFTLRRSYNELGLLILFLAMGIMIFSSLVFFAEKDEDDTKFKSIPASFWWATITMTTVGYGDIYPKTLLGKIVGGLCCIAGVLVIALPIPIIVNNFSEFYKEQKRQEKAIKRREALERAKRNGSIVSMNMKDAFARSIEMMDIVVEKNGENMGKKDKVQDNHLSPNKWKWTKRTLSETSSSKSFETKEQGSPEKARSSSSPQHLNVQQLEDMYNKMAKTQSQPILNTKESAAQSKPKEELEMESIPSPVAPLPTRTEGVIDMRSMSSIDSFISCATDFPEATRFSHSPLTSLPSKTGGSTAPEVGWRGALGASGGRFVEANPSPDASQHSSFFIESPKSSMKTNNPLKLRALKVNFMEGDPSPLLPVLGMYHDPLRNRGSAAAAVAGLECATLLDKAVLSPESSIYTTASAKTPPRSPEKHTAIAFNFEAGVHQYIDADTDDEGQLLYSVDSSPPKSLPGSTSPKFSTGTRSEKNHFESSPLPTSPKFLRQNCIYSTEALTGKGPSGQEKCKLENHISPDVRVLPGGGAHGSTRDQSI
Assay: cell-based or functional assay

- fast component of the activation of Kv2.1/Kv6.4 heterotetramers on co-expression of (untagged) KCNE5 with Kv2.1 and Kv6.4 in HEK293 cells, between +20 mV and +70 mV (whole cell current recordings): ~2 fold
B1: C-terminally YFP-labeled KCNE5 (natural protein, human, UniProt Q9UJ90 1-142, looked up)
chain: MNCSESQRLRTLLSRLLLELHHRGNASGLGAGPRPSMGMGVVPDPFVGREVTSAKGDDAYLYILLIMIFYACLAGGLILAYTRSRKLVEAKDEPSQACAEHEWAPGGALTADAEAAAGSQAEGRRQLASEGLPALAQGAERV
